From PMC11234212 come the findings set out here.

A short description of data set [1]: RALY ubiquitination western blot.
The nature of data set [2]: western blot of RALY protein.
Data set [3] in a line: half-life analysis, western blot, Hep3B and Huh7. The note with it: glycan gained; control: DMSO. On the technique in general: A western blot detects proteins with antibodies after separation by electrophoresis.
Where [4] appears, read: glycan lost, control: RALYKO-WT.
The mark [5] stands for this setting: glycan gained, control: untreated / control-transfected cells.

B1: RALY: S176A (protein)
parent chain: MSLKLQASNVTNKNDPKSINSRVFIGNLNTALVKKSDVETIFSKYGRVAGCSVHKGYAFVQYSNERHARAAVLGENGRVLAGQTLDINMAGEPKPDRPKGLKRAASAIYSGYIFDYDYYRDDFYDRLFDYRGRLSPVPVPRAVPVKRPRVTVPLVRRVKTNVPVKLFARSTAVTTSSAKIKLKSSELQAIKTELTQIKSNIDALLSRLEQIAAEQKANPDGKKKGDGGGAGGGGGGGGSGGGGSGGGGGGGSSRPPAPQENTTSEAGLPQGEARTRDDGDEEGLLTHSEEELEHSQDTDADDGALQ
Take B1: the degradation_or_half_life result in “CHX chase, western blot” (setting [4]) was “decreases”. In data set [1] (setting [4]), the “other: ubiquitination” value is “increases”.

B2: RALY: siOGT (protein)
parent chain: MSLKLQASNVTNKNDPKSINSRVFIGNLNTALVKKSDVETIFSKYGRVAGCSVHKGYAFVQYSNERHARAAVLGENGRVLAGQTLDINMAGEPKPDRPKGLKRAASAIYSGYIFDYDYYRDDFYDRLFDYRGRLSPVPVPRAVPVKRPRVTVPLVRRVKTNVPVKLFARSTAVTTSSAKIKLKSSELQAIKTELTQIKSNIDALLSRLEQIAAEQKANPDGKKKGDGGGAGGGGGGGGSGGGGSGGGGGGGSSRPPAPQENTTSEAGLPQGEARTRDDGDEEGLLTHSEEELEHSQDTDADDGALQ
Take B2: in data set [2] (glycan lost, control: untreated / control-transfected cells), the expression_or_secretion entry is recorded as “decreases”.

B3: RALY: PUG (protein)
parent chain: MSLKLQASNVTNKNDPKSINSRVFIGNLNTALVKKSDVETIFSKYGRVAGCSVHKGYAFVQYSNERHARAAVLGENGRVLAGQTLDINMAGEPKPDRPKGLKRAASAIYSGYIFDYDYYRDDFYDRLFDYRGRLSPVPVPRAVPVKRPRVTVPLVRRVKTNVPVKLFARSTAVTTSSAKIKLKSSELQAIKTELTQIKSNIDALLSRLEQIAAEQKANPDGKKKGDGGGAGGGGGGGGSGGGGSGGGGGGGSSRPPAPQENTTSEAGLPQGEARTRDDGDEEGLLTHSEEELEHSQDTDADDGALQ
Turning to B3, in data set [3], the “degradation_or_half_life, half_life” value was “increases”. Further, the expression_or_secretion result in data set [2] (setting [5]) was “increases”.

B4: RALY: TMG or PUG (protein)
parent chain: MSLKLQASNVTNKNDPKSINSRVFIGNLNTALVKKSDVETIFSKYGRVAGCSVHKGYAFVQYSNERHARAAVLGENGRVLAGQTLDINMAGEPKPDRPKGLKRAASAIYSGYIFDYDYYRDDFYDRLFDYRGRLSPVPVPRAVPVKRPRVTVPLVRRVKTNVPVKLFARSTAVTTSSAKIKLKSSELQAIKTELTQIKSNIDALLSRLEQIAAEQKANPDGKKKGDGGGAGGGGGGGGSGGGGSGGGGGGGSSRPPAPQENTTSEAGLPQGEARTRDDGDEEGLLTHSEEELEHSQDTDADDGALQ
For B4, the degradation_or_half_life entry in “CHX chase, western blot” (glycan gained, control: untreated RALYKO-WT) is reported as “increases”.

B5: RALY: TMG (protein)
parent chain: MSLKLQASNVTNKNDPKSINSRVFIGNLNTALVKKSDVETIFSKYGRVAGCSVHKGYAFVQYSNERHARAAVLGENGRVLAGQTLDINMAGEPKPDRPKGLKRAASAIYSGYIFDYDYYRDDFYDRLFDYRGRLSPVPVPRAVPVKRPRVTVPLVRRVKTNVPVKLFARSTAVTTSSAKIKLKSSELQAIKTELTQIKSNIDALLSRLEQIAAEQKANPDGKKKGDGGGAGGGGGGGGSGGGGSGGGGGGGSSRPPAPQENTTSEAGLPQGEARTRDDGDEEGLLTHSEEELEHSQDTDADDGALQ
Turning to B5, the “degradation_or_half_life, half_life” value in data set [3] was “increases, approximately 40 (Hep3B), 32 (Huh7) vs approximately 16 (Hep3B), 15 (Huh7)”. Besides, the expression_or_secretion result in data set [2] (glycan gained, control: TRIM27-overexpressing cells without TMG) was “increases”; in data set [2] (setting [5]), “increases”. The “other: ubiquitination” value in data set [1] (glycan gained, control: untreated) is “decreases”.

B6: RALY: OE-OGT (protein)
parent chain: MSLKLQASNVTNKNDPKSINSRVFIGNLNTALVKKSDVETIFSKYGRVAGCSVHKGYAFVQYSNERHARAAVLGENGRVLAGQTLDINMAGEPKPDRPKGLKRAASAIYSGYIFDYDYYRDDFYDRLFDYRGRLSPVPVPRAVPVKRPRVTVPLVRRVKTNVPVKLFARSTAVTTSSAKIKLKSSELQAIKTELTQIKSNIDALLSRLEQIAAEQKANPDGKKKGDGGGAGGGGGGGGSGGGGSGGGGGGGSSRPPAPQENTTSEAGLPQGEARTRDDGDEEGLLTHSEEELEHSQDTDADDGALQ
Regarding B6, the expression_or_secretion result in data set [2] (setting [5]) was “increases”.
